First the molecules themselves.
T1: Elongated standard peptide (Elongated selection peptide) QDSGPEYADVV (human)
T1 construct: also called elongated peptide
T1 peptide: QDSGPEYADVV

T2: Truncated standard peptide (Truncated selection peptide) SGPEYADVV (human)
T2 construct: also called truncated peptide
T2 peptide: SGPEYADVV

T3: Non-sense standard peptide YRDDLKKLLE
T3 construct: also called non-sense peptide
T3 peptide: YRDDLKKLLE

T4: Non-sense coating peptide YRDDLKKLLE-Biotin
T4 construct: also called non-sense coater
T4 peptide: YRDDLKKLLE-{Biotin′}

B1: monoclonal antibody clone NBH-306-11 8E7-2C11-1F10-2C10 (antibody, mouse IgG1, kappa, V domains shown)
VH: EVKLVESGGDLVKPGGSLKLSCAASGFTFTSYAMSWVRQTPEKRLEWVASVTSGGTHYLDSVKGRFTISRDIARNILYLQMSSLRSEDTAMYFCARGVSFAYWGQGTLVTVSA
VL: DIVMTQSQKFMSTSVGDRVSVTCKASQNVGTDVVWYQQRPGQSPKALMYSASYRYSGVPDRFTGSGSGTDFTLTISNVQSEDLAEYFCQHYDNYPLTFGAGTKLELKR
notes: also called the mAb; C6A6 assay antibody
B2: Standard peptide (Selection peptide) DSGPEYADVV (peptide)
peptide: DSGPEYADVV
notes: Synthetic peptide from Genscript; also called C6A6

Assay [1] concerns the target B2. The experiment in a line: ELISA screening of hybridoma clones / specificity test. (In general: In an ELISA, binding on a coated surface is turned into a signal by an enzyme label.)
Assay [2] has as its target T1, Elongated standard peptide (Elongated …). Description: competitive CLIA/ELISA (signal inhibition by two-fold diluted peptide). The procedure: (§1) The development of a competitive chemiluminescence immunoassay (CLIA) targeting the C6A6 target sequence included several preliminary optimizing experiments where reagents, concentrations, incubation-time and -temperature were analyzed by several tests. The final C6A6 competitive ELISA procedure was as follows: A 96-well streptavidin-coated white microplate (Greiner Bio-One, Kremsmünster, Austria) was coated with 3 ng/mL biotinylated synthetic peptide ([…]-K-Biotin (SEQ ID NO: 18)) dissolved in assay buffer (10 mM phosphate buffered saline (PBS), 1% bovine serum albumin, 0.1% Tween-20, 0.36% Bronidox, 4 g/L NaCl, adjusted to pH 7.4 at 20° C.) and incubated for 30 min at 20° C. with constant shaking (300 rpm) in darkness. Next, 20 μL/well of standard peptide (100 ng/ml) and samples were added to the appropriate wells, followed by the addition of 100 μL/well of HRP-labelled antibody (generated as described above) diluted in assay buffer to the concertation of 200 ng/ml and incubated for 1 h at 20° C. with constant shaking (300 rpm) in darkness. After each incubation step, wells were washed five times with standard washing buffer (20 mM Tris, 50 mM NaCl, pH 7.2). […] The relative light units were measured at all wavelengths within 5 min on a microplate luminometer reader (SpectraMax M5, Molecular Devices, CA, USA). […] Data were analyzed using the SoftMax Pro version 7.0.3 software.
(§2) Two-fold dilutions of four human serum and two rat serum samples were used to assess linearity. Linearity was calculated as a percentage of recovery of the undiluted sample. Antibody specificity was calculated as percentage of signal inhibition by two-fold diluted standard peptide ([…] (SEQ ID NO: 1)), elongated peptide ([…] (SEQ ID NO: 2)), truncated peptide ([…] (SEQ ID NO: 3)), and non-sense peptide ([…] (SEQ ID NO: 17)). The intra- and inter-assay variation was determined by 10 independent runs of five quality controls and two kit controls run in double determinations.

Assay [3] concerns the target T2, Truncated standard peptide (Truncated …). The assay is described as above. The protocol:
as §1, §2

Assay [4] deals with T3, Non-sense standard peptide YRDDLKKLLE
The assay is described as above. The protocol: as §1, §2

For assay [5], the target named is T4, Non-sense coating peptide …. The experiment in a line: CLIA/ELISA on a streptavidin plate coated with the non-sense coating peptide.
Assay [6] has as its target B1. Description: competitive CLIA: the free standard peptide competes with plate-coated …-K-Biotin for the HRP-labelled mAb (200 ng/mL). The protocol:
The development of a competitive chemiluminescence immunoassay (CLIA) targeting the C6A6 target sequence included several preliminary optimizing experiments where reagents, concentrations, incubation-time and -temperature were analyzed by several tests. […] The relative light units were measured at all wavelengths within 5 min on a microplate luminometer reader (SpectraMax M5, Molecular Devices, CA, USA). […] Data were analyzed using the SoftMax Pro version 7.0.3 software.
as §2

Primed or numbered codes have the meaning given here. Where no end group is shown, it is not given here. Biotin′ = not defined here

One may read the IC50 as the concentration that gives 50% inhibition. A high value points to lower potency.

With B1, the binding result in assay [1] is listed as “binds”; in assay [2], “no binding”; in assay [3], “no binding”; in assay [4] it was “no binding”; in assay [5], “no binding”.

B2 displayed a half-maximal inhibitory concentration (IC50) in assay [6] of 3.86 ng/mL.

Values taken from US20260259223A1 (NORDIC BIOSCIENCE A S, published 2026).
